Assay results taken from the supplement of paper PMC9170038.

Test system: MS2 coat protein
Assay: apparent KD of MS2 coat protein; designed switch direction (-1 OFF switch, 1 ON switch): -1; higher = weaker reporter binding
In short: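 SNAP-549-labelled MS2 coat protein was titrated, doubling from 0.7 or 1.5 nM to 3 µM, over designed RNA switches transcribed on Illumina chips by stalled E. coli RNA polymerase. Runs were done without input, with 200 uM small-molecule ligand, or with an oligonucleotide input. Apparent KD is the per-design median over clusters of curve-fitted normalised fluorescence.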

[1] = Eterna round: R95, input ligand: FMN 200 uM
[2] = Eterna round: R95, input ligand: microRNA oligo, concentration not stated
[3] = Eterna round: R95, input ligand: none
[4] = input ligand: microRNA oligo, concentration not stated

Row | Sequence | apparent KD of MS2 coat protein (input ligand: FMN 200 uM) | apparent KD of MS2 coat protein (input ligand: none) | apparent KD of MS2 coat protein [1] | apparent KD of MS2 coat protein [2] | apparent KD of MS2 coat protein [3] | apparent KD of MS2 coat protein [4]
1 | UGAGACUGAGGAUAUACUGGCCCAUAAAGUGGGUCGUGGGUACAUGAGGAUCACCCAUGUAGAAGGCAGCCUCG [Omei Repeat Sequence v6] (Eterna round: R97, puzzle: Exclusion 2) | 0.656 µM | 0.0554 µM | – | – | – | –
2 | AGUAGGUCUACCUUGGUGGAUCUGCAUUUAGGCAGGUGUACAUGAGGAUCACCCAUGUCCUCAUUUGCUCGUCUUAU [JL turnoff v2 99.29] (puzzle: Sensor v3, turn-off variant 2) | – | – | 0.807 µM | 0.488 µM | 0.952 µM | –
3 | GCAAGCUUUUGCUCGUCUUACAUGAGGAUCACCCAUGUCGGGUGAUUGCUUCGUGCCCGGGCCCGCCGGGCCCGGGC [-41.5, -70.8 kcal, A 12%] (Eterna round: R97, puzzle: Sensor, turn-off variant 1) | 0.0769 µM | 0.0978 µM | – | – | – | –
4 | GUCAGCUCGUGAGGAUAUACAUGAGGAUCACCCAUGUGAUCAAUAGCAGCUUCGGCUGCAUUAAUGUAGAAGGCACGAGCUGAU [ENG2/5-A2] (Eterna round: R96, puzzle: Exclusion NG 2) | 0.0101 µM | 0.203 µM | – | – | – | 0.166 µM
5 | UGUUGUUACGCAGGAUAUGAGGAUCACCCAUAUAAGGAUAUCGAAAGAGAAGUUCUGAGGAUCACCCAGAAGGGCGGGUUAACA [pwkr exNG2 2xF5 2xFMN.31] (Eterna round: R96, puzzle: Exclusion NG 2) | 0.193 µM | 0.0711 µM | – | – | – | 0.059 µM
6 | AUUUAACAUGAGGAUCACCCAUGUGAGGAUAUGUCCAUAUUCGGCAAAUCGGAUAUGGACAGAAGGCACACCGG [JR_Exclusion1_Sub008] (puzzle: Exclusion 1) | – | – | – | 0.139 µM | – | –
7 | UUUAUAAUAAGAUCAAUUAAUUAACAUGAGGAUCACCCAUGUGAGGAUAUCAGCUCGUUUAGAGCUGAGAAGGCACAAUAUAAG [ExNG3/17-B2] (Eterna round: R96, puzzle: Exclusion NG 3) | 0.0622 µM | 0.0423 µM | – | – | – | 0.0421 µM
8 | AAGGAUAGAGGAUAUACAUAGAUACAGAUUCGUGUAGAACUACAUGAGGAUCACCCAUGUAGAAGGCUAUCCUA [Fiskers Ex 2 - 7] (puzzle: Exclusion 2) | – | – | – | 0.0152 µM | – | –
9 | GAUAGACAUGAGGAUCACCCAUGUGAGGAUAUGCGUACGUUGUCAGUAGGCGACGUGCGCAGAAGGCGCAAGUU [Mat - Mod of JL D91] (puzzle: Exclusion 1) | – | – | – | 0.0618 µM | – | –
10 | UCAGGAGCAGGAUAUGCAAUCGUGCUUCGGCACGUAAGGUCACAUGAGGAUCACCCAUGUAGAAGGGCUCCUGA [E2/4-D2] (Eterna round: R97, puzzle: Exclusion 2) | 0.0384 µM | 0.0185 µM | – | – | – | –
11 | CAUGUCCAACGAGGAUAUGGGACAGGAGGUGUACCAGAAGGCGUACGGACAUGAGGAUCACCCAUGUCGCGCGGUGCGAUGUGG [15th something] (Eterna round: R96, puzzle: Exclusion NG 1) | 0.0989 µM | 0.0628 µM | – | – | – | 0.0398 µM
12 | UAAAAGUCAGGAUAUGCGAGAGAUUGAAGUAUGGAAAGGUAGCAGAAGGGACAUGAGGAUCACCCAUGUGAGGA [JR_Exclu4_Sub095] (puzzle: Exclusion 4) | – | – | 0.0511 µM | 0.0317 µM | 0.0295 µM | –
13 | CGCUGGACAGGAUAUGUUCUUGGGCACUUGAGGAUCACCCAAGUCAUCGGGACAUCAGGCACAGAAGGGUCGUUGG [salish99_ex5_r4_029] (Eterna round: R97, puzzle: Exclusion 5) | 0.0222 µM | 0.0256 µM | – | – | – | –
14 | GAUCUACAUGAGGAUCACCCAUGUAAGGAUAUCUACAUUGAAGCCUCGGCUUCAAUGUAGAGAAGGUACAAUUA [E1/10-B2] (Eterna round: R97, puzzle: Exclusion 1) | 0.0315 µM | 0.0324 µM | – | – | – | –
15 | ACUGUUUGAUACCUCUUAUACAUGAGGAUCACCCAUGUUAUCGAGGAUAUGCAUUAGAGUGGUUAGCAGAAGGCGAUGUAAUUG [JR_ExcNG3_Sub032] (Eterna round: R96, puzzle: Exclusion NG 3) | 0.0308 µM | 0.0135 µM | – | – | – | 0.0121 µM
16 | AAAUAGCAAGUUUGAUCCUACAUGAGGAUCACCCAUGUGUUCGUCUUAUUUGAAGACAACACAAAAGUGUUGUCUUA [Omei Mir OFFv1 B1] (Eterna round: R97, puzzle: Sensor, turn-off variant 1) | 1.1 µM | 1.3 µM | – | – | – | –
17 | CUAUCUAGAGGAUAUACGAGAUCGAAAGAUCGGCGAUCCCUACAUGAGGAUCACCCAUGUAGAAGGCUAGAUAG [Mod 16 - Jieux - Exclusion 2] (Eterna round: R97, puzzle: Exclusion 2) | 0.0995 µM | 0.0186 µM | – | – | – | –

Row | Sequence | apparent KD of MS2 coat protein (input ligand: FMN 200 uM) | apparent KD of MS2 coat protein (input ligand: none) | apparent KD of MS2 coat protein [1] | apparent KD of MS2 coat protein [2] | apparent KD of MS2 coat protein [3] | apparent KD of MS2 coat protein [4]
18 | UUUGUUUAGGUAGGAUAUACUUUUAAUUUCUCUUUCCUUACAUGAGGAUCACCCAUGUUUACAUUGUAGAAGGACCACUUUGUU [JR_ExcNG2_Sub052] (Eterna round: R96, puzzle: Exclusion NG 2) | – | – | – | – | – | 0.0165 µM
19 | GAAUUAAUUAAUUAAUAAUACAUGAGGAUCACCCAUGUAGAUCCUACAUACAAUUUAAGUAGCUCGUCUUAUAAUUA [Stov1/1-A2] (Eterna round: R97, puzzle: Sensor, turn-off variant 1) | 0.108 µM | 0.202 µM | – | – | – | –
20 | GGAUUUCCUGAGGAUAUUGCAUCACCCGAUUUAUAAGAAGGCAGAACAUGAGGAUCACCCAUGUGGGUCUCCAG [Bingo-Bango-24] (Eterna round: R97, puzzle: Exclusion 6) | 0.0229 µM | 0.0179 µM | – | – | – | –
21 | UAUCGCAAGCGAAGAUCCCACAUGAGGAUCACCCAUGUGCUCGUCUUAUAAGGUACUGUGACGAAAGUCACGGUACC [Sensor 3, v1 - 91 v15] (Eterna round: R97, puzzle: Sensor, turn-off variant 1) | 0.0316 µM | 0.0322 µM | – | – | – | –
22 | UAUUAACAAGCAAGAUCCCACAUGAGGAUCACCCAUGUGCUCGUCUUGUAAGGUACUGUGACGAAAGUCACGGUACC [Sensor 3, v1 - 84] (puzzle: Sensor v3, turn-off variant 1) | – | – | 0.0139 µM | 0.041 µM | 0.0134 µM | –
23 | CUGAGUAGUCAGGAUAUGUGGUACAAAAGUACAGCAGAAGGGAUUACAUGAGGAUCACCCAUGUUUACUUCAUG [Omei Ex6 B16] (Eterna round: R97, puzzle: Exclusion 6) | 0.0579 µM | 0.0326 µM | – | – | – | –
24 | GGCAGACAUGAGGAUCACCCAUGUCAGGAUAUGGUGCGAUCGUCGAAAGACGAUAGCACCAGAAGGGACAUGCC [Eli x1 4.03] (Eterna round: R97, puzzle: Exclusion 1) | 0.0305 µM | 0.0191 µM | – | – | – | –
25 | AUUAUACAUGAGGAUCACCCAUGUGAGGAUAUCCGCAGCACAGGCAGAGUCGGUUGCAGGAGAAGGCACUCCUC [Eternabot (L1) Solution 57] (Eterna round: R97, puzzle: Exclusion 1) | 0.0725 µM | 0.0444 µM | – | – | – | –
26 | AUAAAAUGCCAAGGAUAUCGGAAAGGAAGUGUACGAGAAGGUGGAGAUCCUAUACAUGAGGAUCACCCAUGUAUCAAGCUUGGG [PowerStrip EXNG 1.10] (Eterna round: R96, puzzle: Exclusion NG 1) | 0.692 µM | 0.76 µM | – | – | – | 0.51 µM
27 | GUCAUGUUAGGAUAUUUCCCAGCUGAGACUACAGAUUGUAGGAAGAAGGAACAUGAGGAUCACCCAUGUGAAAA [Eternabot (L2) Solution 28] (Eterna round: R97, puzzle: Exclusion 4) | 0.0366 µM | 0.039 µM | – | – | – | –
28 | GCCGAAAGCGUAGGAUAUUGAAUAAAGCGGAAACGCAAGACAUGAGGAUCACCCAUGUGUCCGGACGAGAAGGGCGAAAGCGGC [AK ExNG2-V2-2] (Eterna round: R96, puzzle: Exclusion NG 2) | 0.0336 µM | 0.0353 µM | – | – | – | 0.0241 µM
29 | UCAUACGAUGAGGAUAUCUCAGUUAAAGUAUUUAGAGAAGGCGUUACAUGAGGAUCACCCAUGUUUGUGGGCAG [Ex-6 Malc#8] (puzzle: Exclusion 6) | – | – | 0.0991 µM | 0.0939 µM | 0.136 µM | –
30 | GGUCCUCUGGUGAGGAUAUCUACCCAGGCAGCUGGAGAGAAGGCACAUGAGGAUCACCCAUGUAGCAGAAAACC [Enremadi] (puzzle: Brourd's mod of Exclusion 4) | – | – | – | 0.00956 µM | – | –
31 | UAAUAGUAUGUUAGGAUAUGCUGGUCGAAAGAUCAGCAGAAGGAACAUGAGGAUCACCCAUGUAGACUAUUUUA [Mod of JL 20 - Jieux - Brourd's mod of Exclusion 4] (Eterna round: R97, puzzle: Brourd's mod of Exclusion 4) | 0.0316 µM | 0.0178 µM | – | – | – | –
32 | UUAUUACAAGCAAGAUCCUACAUGAGGAUCACCCAUGUGCUCGUCUUGUAAGGUACAGUGACGAAAGUCACAGUACC [Sensor 3, v1 - 000] (puzzle: Sensor v3, turn-off variant 1) | – | – | 0.0247 µM | 0.302 µM | 0.0249 µM | –
33 | GGCAAUAACGAGGAUAUCGUAUCGGAAACGAUACGAGAAGGUGUAACAUGAGGAUCACCCAUGUUCCUCAAGCC [Fiskers Ex 6 - 8] (puzzle: Exclusion 6) | – | – | – | 0.0339 µM | – | –
34 | UCCAUGUCAGGAUAUCUAAAGGUCCGAAAUAACGGUACUGCAGAGAAGGGACAUGAGGAUCACCCAUGUCCUCC [Exclusion 4 (Mod2 of Nando's EX4 C.22)] (Eterna round: R97, puzzle: Exclusion 4) | 0.0203 µM | 0.016 µM | – | – | – | –
